The values that follow come from the DeepSol protein solubility set.

This data set can be described thus: soluble on expression in E. coli; label from the status in PepcDB or PDB records.
For “KTKVGNQSPDVRFGLQNTFKIKDFTVNIDMDGAIGGTLISTTTQKMWWGGKHPKSTMYRQEEYDNGGKPVYVPEGVNIVSGEVTYDVNGNIVSDTRVYKKNETAVNIQTWAQNYPYRAVVRTEESELFANTFSRSFLKLRRVAVTYDLTKFIQSQFIKGLDVTVFGNNLAVLKKTPYLDPDFGASDGDLQDPSARYVGVSANIKF”, the “soluble on expression in E. coli” value was “not soluble”. As for “KTQGFLTMSRRRISCKDLGHADCQGWLYKKKEKGSFLSNKWKKFWVILKGSSLYWYSNQMAEKADGFVNLPDFTVERASECKKKHAFKISHPQIKTFYFAAENVQEMNVWLNKLGSAVIHQESTTKDEECYSESEQEDPEIAAETPPPPHASQTQSLTAQQASSSSPSLSGTSYSFSSLENTVKTPSSFPSSLSKERQSLPDTVNSLSAAEDEGQPITFAVQVHSPVPSEAGIHKALENSFVTSESGFLNSLSSDDTSSLSSNHDHLTVPDKPAGSKIMDKEETKVSEDDEMEKLYKSLEQASLSPLGDRRPSTKKELRKSFVKRCKNPSINEKLHKIRTLNSTLKCKEHDLAMINQLLDDPKLTARKYREWKVMNTLLIQDIYQQQRASPAPDDTDDTPQELKKSPSSPSVENSI”, the “soluble on expression in E. coli” value is reported as “soluble”. Turning to “KVILYARVSSSTQKDELVNQVKYLEEQVKEYDLVITDIGSGLNMKRKGFLKLLRMILNNEVSRVVVAYPDRLVRVGFEILEEVCKAHNCEIVVLNQEDKEEELVEDLMSALVSFSGKLYGMRSHEYEKVKKCAEELKNWKI”, the “soluble on expression in E. coli” value is “soluble”.

In the case of “KVKVPYLRLSLPELHIDMDFLKKTVDFSSISALQQTVLYIGRLLVQSGINTLGVDAVAAFNAVSIIDSYVLAPGDSLAASITTFTAQNKGGKQYHRIPKG”, the “soluble on expression in E. coli” value is recorded as “not soluble”. On to “KVKWTHEEDEQLRALVRQFGQQDWKFLASHFPNRTDQQCQYRWLRVL”, for which the “soluble on expression in E. coli” value is reported as “soluble”. On to “KYKLVFLGEQAVGKTSIITRFMYDTFDNNYQSTIGIDFLSKTLYLDEGPVRLQLWDTAGQERFRSLIPSYIRDSAAAIVVYDITNRQSFENTTKWIQDILNERGKDVIIALVGNKTDLGDLRKVTYEEGMQKAQEYNTMFHETSAKAGHNIKVLFKKTASKL”, for which the “soluble on expression in E. coli” value is “soluble”.

As for “LAKGLEDVYIDQTNICYIDGKEGKLYYRGYSVEELAELSTFEEVVYLLWWGKLPSLSELENFKKELAKSRGLPKEVIEIMEALPKNTHPMGALRTIISYLGNIDDSGDIPVTPEEVYRIGISVTAKIPTIVANWYRIKNGLEYVPPKEKLSHAANFLYMLHGEEPPKEWEKAMDVALILYAEHEINASTLAVMTVGSTLSDYYSAILAGIGALKGPIHGGAVEEAIKQFMEIGSPEKVEEWFFKALQQKRKIMGAGHRVYKTYDPRARIFKKYASKLGDKKLFEIAERLERLVEEYLSKKGISINVDYWSGLVFYGMKIPIELYTTIFAMGRIAGWTAHLAEYVSHNRIIRPRLQYVGEIGKKYLPIELRR”, the “soluble on expression in E. coli” value is on record as “soluble”. Then “LAMVDNLQGDSGRGYYLEMLIGTPPQKLQILVDTGSSNFAVAGTPHSYIDTYFDTERSSTYRSKGFDVTVKYTQGSWTGFVGEDLVTIPKGFNTSFLVNIATIFESENFFLPGIKWNGILGLAYATLAKPSSSLETFFDSLVTQANIPNVFSMQMCGAGLPVAGSGTNGGSLVLGGIEPSLYKGDIWYTPIKEEWYYQIEILKLEIGGQSLNLDCREYNADKAIVDSGTTLLRLPQKVFDAVVEAVARASLIPEFSDGFWTGSQLACWTNSETPWSYFPKISIYLRDENSSRSFRITILPQLYIQPMMGAGLNYECYRFGISPSTNALVIGATVMEGFYVIFDRAQKRVGFAASPCAEIAGAAVSEISGPFSTEDVASNCVPA”, with “soluble”; and “LDPSGKSVIYTKSLAFEKALVRPEKEVKKVHTALDALNSSLADGRGVDFAYMMSIYQVESQMTLIEELGDLIMPDPEKYLNGELTYVSRQDFLSGDVVTKLEVVDLFVKQDNQDFNWSHYAGLLEAIKPARITLADIDYRIGSRWIPLAVYGKFAQETFMGKAYELSDQEVATVLEVSPIDGVITYQSKFAYTYSNATDRSLGVPASRYDSGRKIFENLLNSNQPTITKQVVEGDKKKNVTDVEKTTVLRAKETHLQELFQGFVAKYPEVQQMIEDTYNRLYNRTVSKSYDGSHLTIDGLAQNISLRPHQ”, with “not soluble”; and “LEAPRDLEAKEVTPRTALLTWTEPPVRPAGYLLSFHTPGGQTQEILLPGGITSHQLLGLFPSTSYNARLQAMWGQSLLPPVSTSFTTGGLRI”, with “soluble”. On to “LFLPNTRAYRRYNRSVWAVRGSTRPQWQPPPKFQHAKCMSMRLAHRLQILLDDECHRRITAVARERGVPVATVVREAIDRGLVSPAGRRKSAGRRLLDAADMSVPEPRELKQELEALRARRG”, for which the “soluble on expression in E. coli” value is “not soluble”. As for “LFTPHWIVRYLVENSLGRLWMLNRPESSLVDRMEYYIKPEKQETDFLKINSPEEIKICDPACGSGHMLVYAFDLLYAIYEEEGYTPSEIPEMILTHNLFGIEIDKRAGELAGFALAMKARGKDRRFFNKQVHPNICMLENVAFEQGELNDYIETVGRELFTNAHRATLLQFAEADNFGSLIRPVAKDISDLLHLLESKNLSGNLSLLSTHQKVLKALKQADYLSPKYHVVVANPPYMGGKGMNNRLKTFAQDNYPDSKSDTFAMFIERNLDLAVKKGMVAMITMQSWMFLSSFEKLRENILSNDTILSMAHFGARAFDSIGGEVVSTTAFVLENAQHPDYKGSYLRLVDGN”, the “soluble on expression in E. coli” value was “not soluble”.

On to “LGFNLKEAASIGIIGGADGPTTIYLTTKLAPHILSATAVAAYSYMSLVPLIQPPVIKALTTPEERRIRMEQLRPVSKREK”, for which the “soluble on expression in E. coli” value was “not soluble”.

On to “LHAEGPPSVICIRLLVGLVFLSEGIQKFMYPDQLGPGRFERIGIPAATFFADLDGVVEIVCGTLVLLGLLTRVAAVPLLIDMVGAIVLTKLRALQPGGFLGVEGFWGMAHAARTDLSMLLGLIFLLWSGPGRWSLDRRLSKRATACGAR”, for which the “soluble on expression in E. coli” value was “not soluble”. Then “LIERIEGFEPQWWEQGGAKPEKPEMREPRQRNRYESAKAQREKNTRPENAANDAGAACGKIAGRSRRSRREHRTCALLQPRYGVK”, with “soluble”. Consider “LKKKVKRTCSNCLKGTAININNDILCIEKGIVSSDYVCSKHRFMPSFSSIKRKIHTCIDCEHFIIFDTSNVEDRAFGICELFTVRKYDGKNKKVCSKFVKRVKKEVC”, for which the “soluble on expression in E. coli” value is reported as “not soluble”.

As to “LKPKILTASRKIKIKAGFTHNLEVDFIGAPDPTATWTVGDSGAALAPELLVDAKSSTTSIFFPSAKRADSGNYKLKVKNELGEDEAIFEVIVQ”, the “soluble on expression in E. coli” value is listed as “soluble”.

As to “LKVREDENNPFYFRSSNSFQTLFENQNGRIRLLQRFNKRSPQLENLRDYRIVQFQSKPNTILLPHHADADFLLFVLSGRAILTLVNNDDRDSYNLHPGDAQRIPAGTTYYLVNPHDHQNLKMIWLAIPVNKPGRYDDFFLSSTQAQQSYLQGFSHNILETSFHSEFEEINRVLFGEEEEQRQQEGVIVELSKEQIRQLSRRAKSSSRKTISSEDEPFNLRSRNPIYSNNFGKFFEITPEKNPQLRDLDIFLSSVDINEGALLLPHFNSKAIVILVINEGDANIELVGIKEQQQKQKQEEEPLEVQRYRAELSEDDVFVIPAAYPFVVNATSNLNFLAFGINAENNQRNFLAGEKDNVVRQIERQVQELAFPGSAQDVERLLKKQRESYFVDAQPQQKEEGSKGRKGPFPSILGALY”, the “soluble on expression in E. coli” value is “soluble”. “LLELLLLTSELYPDPVLPALSLLPHTVRTAPAEASSLLEAGNADAVLVDARNDLSSGRGLCRLLSSTGRSIPVLAVVSEGGLVAVSADWGLDEILLLSTGPAEIDARLRLVVGRRGDLADQESLGKVSLGELVIDEGTYTARLRGRPLDLTYKEFELLKYLAQHAGRVFTRAQLLHEVWGYDFFGGTRTVDVHVRRLRAKLGPEHEALIGTVRNVGYKAVRPARGRPPAADPDDEDADPGRDGMQEPLVDPLRSQ”: the “soluble on expression in E. coli” value is reported as “not soluble”.
